According to publication PMC9363427, “The SWI/SNF chromatin remodeling factor DPF3 regulates metastasis of ccRCC by modulating TGF-β signaling” (Nature Communications, 2022):

T1: GST-tagged full-length SNIP1 (recombinant) (human, UniProt Q8TAD8 1-396)
T1 construct: also called SNIP1-FL; source: E. coli BL21 (DE3)-RIL, purified (Glutathione Sepharose 4B, Superdex 200)
T1 sequence (looked up): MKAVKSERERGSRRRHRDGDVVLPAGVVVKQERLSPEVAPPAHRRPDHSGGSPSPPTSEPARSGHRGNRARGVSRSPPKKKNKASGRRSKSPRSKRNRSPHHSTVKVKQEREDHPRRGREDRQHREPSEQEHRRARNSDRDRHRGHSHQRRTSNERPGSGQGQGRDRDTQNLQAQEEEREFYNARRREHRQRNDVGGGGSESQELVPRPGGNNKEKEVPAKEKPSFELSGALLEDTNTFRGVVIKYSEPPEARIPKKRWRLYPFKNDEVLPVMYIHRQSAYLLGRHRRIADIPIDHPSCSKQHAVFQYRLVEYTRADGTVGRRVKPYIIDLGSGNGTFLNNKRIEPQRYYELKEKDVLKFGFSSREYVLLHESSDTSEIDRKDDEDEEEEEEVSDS

B1: Recombinant full-length DPF3a, GST tag removed (natural protein, human, UniProt Q92784-2 1-357, looked up)
chain: MATVIHNPLKALGDQFYKEAIEHCRSYNSRLCAERSVRLPFLDSQTGVAQNNCYIWMEKRHRGPGLAPGQLYTYPARCWRKKRRLHPPEDPKLRLLEIKPEVELPLKKDGFTSESTTLEALLRGEGVEKKVDAREEESIQEIQRVLENDENVEEGNEEEDLEEDIPKRKNRTRGRARGSAGGRRRHDAASQEDHDKPYVCDICGKRYKNRPGLSYHYAHTHLASEEGDEAQDQETRSPPNHRNENHRPQKGPDGTVIPNNYCDFCLGGSNMNKKSGRPEELVSCADCGRSAHLGGEGRKEKEAAAAARTTEDLFGSTSESDTSTFHGFDEDDLEEPRSCRGRRSGRGSPTADKKGSC
notes: Zinc finger protein DPF3, isoform DPF3a, cDNA subcloned into pGEX-6P-1; Expressed with 0.1 mM ZnSO4; also called DPF3a-FL; full-length DPF3a proteins; source: E. coli BL21 (DE3)-RIL, purified (Glutathione Sepharose 4B, 3C protease, Superdex 200)
B2: GST-tagged SNIP1 N-terminus (1-240) (recombinant) (domain or fragment, human, UniProt Q8TAD8 1-240, looked up)
chain: MKAVKSERERGSRRRHRDGDVVLPAGVVVKQERLSPEVAPPAHRRPDHSGGSPSPPTSEPARSGHRGNRARGVSRSPPKKKNKASGRRSKSPRSKRNRSPHHSTVKVKQEREDHPRRGREDRQHREPSEQEHRRARNSDRDRHRGHSHQRRTSNERPGSGQGQGRDRDTQNLQAQEEEREFYNARRREHRQRNDVGGGGSESQELVPRPGGNNKEKEVPAKEKPSFELSGALLEDTNTFR
notes: also called SNIP1-IDR; source: E. coli BL21 (DE3)-RIL, purified (Glutathione Sepharose 4B, Superdex 200)

Columns and labels:
[1] = molecular target: T1, GST-tagged full-length SNIP1 …; assay: pull-down; 1.5 nmol GST-tagged DPF3a or SNIP1 construct on Glutathione Sepharose 4B beads, 2 nmol SNIP1 1-240 or full-length DPF3a added, 4 °C 2 h; 20 mM Tris pH 7.5, 100 mM NaCl, 5 mM β-mercaptomethanol; washes with 0.5% Triton X-100; SDS-PAGE; conditions: both partners purified
[2] = molecular target: B1; assay: as above; conditions: both partners purified

Binder | binding result [1] | binding result [2]
B1 | binds | 
B2 |  | binds
